Data published in patent US20200199204A1 (UNITED STATES OF AMERICA AS REPRESENTED BY THE SECRETARY …, published 2020).

Columns and labels:
Test in all cases: cell-based or functional assay
[1] = target: HIV-1 Env of TH976.17 (HIV-1)
[2] = target: HIV-1 Env of Q23.17 (HIV-1)
[3] = target: HIV-1 Env of C1080.c3 (HIV-1)
[4] = target: HIV-1 Env of Q259.d2.17 (HIV-1)
[5] = target: HIV-1 Env of Q842.d12 (HIV-1)
[6] = target: HIV-1 Env of 96ZM651.02 (HIV-1)
[7] = target: HIV-1 Env of Q461.e2 (HIV-1)
[8] = target: HIV-1 Env of TRJO.58 (HIV-1)
[9] = target: HIV-1 Env of TRO.11 (HIV-1)
[10] = target: HIV-1 Env of CAP256.PI (HIV-1)
[11] = target: HIV-1 Env of MB539.2B7 (HIV-1)
[12] = target: HIV-1 Env of ZM214.15 (HIV-1)
[13] = target: HIV-1 Env of CAP244.D3 (HIV-1)
[14] = target: HIV-1 Env of Q168.a2 (HIV-1)
[15] = target: HIV-1 Env of KER2008.12 (HIV-1)
[16] = target: HIV-1 Env of AC10.29 (HIV-1)
[17] = target: HIV-1 Env of 6535.3 (HIV-1)
[18] = target: HIV-1 Env of Q769.d22 (HIV-1)
[19] = target: HIV-1 Env of KER2018.11 (HIV-1)
[20] = target: HIV-1 Env of 0260.v5.c36 (HIV-1)
[21] = target: HIV-1 Env of MB201 (HIV-1)
[22] = target: HIV-1 Env of QH0692.42 (HIV-1)
[23] = target: HIV-1 Env of 6405.v4.c34 (HIV-1)
[24] = target: HIV-1 Env of 3016.V5.c36 (HIV-1)
[25] = target: HIV-1 Env of CM244.ec1 (HIV-1)
[26] = target: HIV-1 Env of THRO.18 (HIV-1)
[27] = target: HIV-1 Env of RW020.2 (HIV-1)
[28] = target: HIV-1 Env of REJO.67 (HIV-1)
[29] = target: HIV-1 Env of ZM109.4 (HIV-1)
[30] = target: HIV-1 Env of RHPA.7 (HIV-1)
[31] = target: HIV-1 Env of WITO.33 (HIV-1)
[32] = target: HIV-1 Env of PVO.04 (HIV-1)
[33] = target: HIV-1 Env of ZM53.12 (HIV-1)
[34] = target: HIV-1 Env of CAP210.E8 (HIV-1)
[35] = target: HIV-1 Env of DU422.01 (HIV-1)
[36] = target: HIV-1 Env of ZM249.1 (HIV-1)
[37] = target: HIV-1 Env of DU172.17 (HIV-1)
[38] = target: HIV-1 Env of CNE3 (HIV-1)
[39] = target: HIV-1 Env of SC422.8 (HIV-1)
[40] = target: HIV-1 Env of UG037.8 (HIV-1)
[41] = target: HIV-1 Env of CAAN.A2 (HIV-1)
[42] = target: HIV-1 Env of DU156.12 (HIV-1)
[43] = target: HIV-1 Env of CAP45.G3 (HIV-1)
[44] = target: HIV-1 Env of CAP256.SU (HIV-1)
[45] = target: HIV-1 Env of ZM197.7 (HIV-1)
[46] = target: HIV-1 Env of ZM135.10a (HIV-1)
[47] = target: HIV-1 Env of BG505.w6m (HIV-1)
[48] = target: HIV-1 Env of ZM233.6 (HIV-1)

B1: CAP256-VRC26.26 (antibody, V domains shown)
VH: EVQLVESGGGIVQPGRSLTLSCVASQFAFSHYGMHWVRQAPGKGLEWVASISRDETKKYHGDSVWDRFSISRDNSKNTLFLQMNSLRAEDTALYFCVRDQREDECEEWWSDYYDFGKELPCRKFRGLGLAGIFDVWGHGTMVIVSS
VL: QSALTQPPSVSAAPGQKVSISCSGNNSNIGNNFISWFQQFPGTAPKPLIYETYKRHSGIPDRFSGSKSGTSATLAITGLQTGDEADYYCATWGVRQGVGALFGTGTKVTVLG
IC50 (neutralization, TZM-bl) [1]: > 50 µg/mL
IC50 (neutralization, TZM-bl) [2]: > 50 µg/mL
IC50 (neutralization, TZM-bl) [3]: 0.016 µg/mL
IC50 (neutralization, TZM-bl) [4]: 0.011 µg/mL
IC50 (neutralization, TZM-bl) [5]: 17.1 µg/mL
IC50 (neutralization, TZM-bl) [6]: 0.111 µg/mL
IC50 (neutralization, TZM-bl) [7]: 0.024 µg/mL
IC50 (neutralization, TZM-bl) [8]: > 50 µg/mL
IC50 (neutralization, TZM-bl) [9]: > 50 µg/mL
IC50 (neutralization, TZM-bl) [10]: > 50 µg/mL
IC50 (neutralization, TZM-bl) [11]: 0.634 µg/mL
IC50 (neutralization, TZM-bl) [12]: 14.1 µg/mL
IC50 (neutralization, TZM-bl) [13]: 36.6 µg/mL
IC50 (neutralization, TZM-bl) [14]: 0.005 µg/mL
IC50 (neutralization, TZM-bl) [15]: > 50 µg/mL
IC50 (neutralization, TZM-bl) [16]: > 50 µg/mL
IC50 (neutralization, TZM-bl) [17]: > 50 µg/mL
IC50 (neutralization, TZM-bl) [18]: > 50 µg/mL
IC50 (neutralization, TZM-bl) [19]: 0.001 µg/mL
IC50 (neutralization, TZM-bl) [20]: 0.78 µg/mL
IC50 (neutralization, TZM-bl) [21]: > 50 µg/mL
IC50 (neutralization, TZM-bl) [22]: > 50 µg/mL
IC50 (neutralization, TZM-bl) [23]: > 50 µg/mL
IC50 (neutralization, TZM-bl) [24]: 0.022 µg/mL
IC50 (neutralization, TZM-bl) [25]: 0.047 µg/mL
IC50 (neutralization, TZM-bl) [26]: 0.667 µg/mL
IC50 (neutralization, TZM-bl) [27]: > 50 µg/mL
IC50 (neutralization, TZM-bl) [28]: > 50 µg/mL
IC50 (neutralization, TZM-bl) [29]: 0.025 µg/mL
IC50 (neutralization, TZM-bl) [30]: > 50 µg/mL
IC50 (neutralization, TZM-bl) [31]: > 50 µg/mL
IC50 (neutralization, TZM-bl) [32]: 0.562 µg/mL
IC50 (neutralization, TZM-bl) [33]: 0.001 µg/mL
IC50 (neutralization, TZM-bl) [34]: 0.007 µg/mL
IC50 (neutralization, TZM-bl) [35]: 0.08 µg/mL
IC50 (neutralization, TZM-bl) [36]: 0.023 µg/mL
IC50 (neutralization, TZM-bl) [37]: 0.5 µg/mL
IC50 (neutralization, TZM-bl) [38]: > 50 µg/mL
IC50 (neutralization, TZM-bl) [39]: 1.74 µg/mL
IC50 (neutralization, TZM-bl) [40]: > 50 µg/mL
IC50 (neutralization, TZM-bl) [41]: > 50 µg/mL
IC50 (neutralization, TZM-bl) [42]: 0.013 µg/mL
IC50 (neutralization, TZM-bl) [43]: 0.08 µg/mL
IC50 (neutralization, TZM-bl) [44]: 0.003 µg/mL
IC50 (neutralization, TZM-bl) [45]: 0.011 µg/mL
IC50 (neutralization, TZM-bl) [46]: > 50 µg/mL
IC50 (neutralization, TZM-bl) [47]: 0.066 µg/mL
IC50 (neutralization, TZM-bl) [48]: 0.001 µg/mL
